Results on 23 sequences are retold here after a protein production outcome set (Wang et al. 2014).

The nature of this data set: label from the status in PepcDB records.
On to “MSVPQGARDVEAIRAIGPDQWQTVPAGQTLNRGFSDDEFWLQVRVPAQPANRVLEVGYPLLDEVSVYWELDGRIIESHHTGDTRPFDSRPIVHRNFVFLVPSNTEPVTAWIRVQTQGSVQVPVAVTPSAEFLANEQISYGWQTMFLGIVVALALYNLFLFLIVRHQTYLWYVLTVVCSGAVQLNFNGLLFQWFWPDVPWINRYFTVPVVSAALIAAIVFTMKFLLVKSYSRWGYRILQALLAVNLLGLIYGFLGSYQVGIIWISSLAAFATPVAWLIGINVWRRGQILGGFYVLAWTPLLLGHLVLAVSKLGWIPRSPFTELAPQAGVAVEVILLSFALAYRINMERRRRQQAQEHALDIQRQANLTLESRVRERTEELEQANEQLRAISLTDGLTHVANRRRFDEKLETEWNRALRHEHELSLILLDIDHFKQVNDRFGHLVGDDCLVALASILSDEVQRSGDLVARYGGEEFAILLPTTDVAGAQQVAERMRLSVARTPVNSGEHMSPVSLTISLGVATLTPNRQSDCQELIRRADEALYAAKSDGRNRVVVWHPKAVAPTTG”, for which the protein production entry is given as “failed”.

With “MVRPYGIKVNKRKEREERYDKEEDEVEEQPKFEQKQKARESSKKAKKESTSRAEEDNDEEEVTVEATAAAEDIVGGIPIVLNAPNKEKSGIVFVLEKASLEVAKVGKTYQLLNSDDHANFLKKNNRNPADYRPDITHQALLMILDSPVNKAGRLKAVYVRTEKGVLFEVKPHVRIPRTFKRFAGIMLQLLQKLSITAVNSREKLLRCVKNPIEEHHLPVNSHRIGFSHSSEKLVNMQKHLATVCDDDRDTVFVVGAMAHGKIDCNYIDEFVSVSEYPLSAAYCISRICEALATNWNII”, the protein production entry was “failed”.

For “MLPAYIKIHDAIKKEIDKGTWKIGQRLPSERDLADDYSVSRMTLRQSITLLVEEGILERRVGSGTYVASHRVQEKMRGTTSFTEIVNSQGRKPSSKLISFQRKLANETEIQKLNLSQSDYVVRMERVRYADKVPLVYEVASIPENLIKGFEQSEVTEHFFKTLTENGYEIGKSQQTIYARNASERVASHLEVNAGHAILALTQVSYFTDGKPFEYVHGQYVGDRFEFYLENN”, the protein production entry is “failed”.

Regarding “MSLETKTPNDAKNQVQTHERMKTSSEHVTPLDFNYPIHIVQAPQNHHVVGILTPRIQVSDNLKPYIDKFQDALINQIQTIFEKRGYQVLRFQDEKALNAQDKRKIFSVLDLKGWVGILEDLKMNLKDPNNPNLDTLVDQSSGSVWFNFYEPESNRVVHDFAVEVGTFQAMTYTYKHNNSGGLNSSNSIIHEYLEKNKEDAIHKILNRMYAVVMKKAVTELTKENIDKYREAIDRMKGFKSSMPQKKEGHHHHHH”, the protein production result is “not failed”.

As to “MAGRRLIIGDVHGHYRSLYRLLELADPDTDDQVYCLGDLIDRGPDSAKVVALVRSQGYTSLMGNHEHLLSQVLAFPDLSELRLHWFQAGGQATLASFGSWEALEELRPWLQQLPLYLDLGEIWLVHAGVDPDLPLSRQDANEFCWIRDQFLARSQPFFANKTILVGHTITCTMAGIQPGYVAAGAGWLGLDTGVYHPRSGWLTALDWDNQRVFQVQAQSNETRVCDLAERLQTVLSNPAKGRRSLLRYPRDQVSPS”, the protein production entry is on record as “failed”.

For “MMTSAAPKPVRENIARAKAYLRRDDLPRSMAAMATALRELKGTRLIGQARFETEVNIHEYVTELNRHQAVRRFFEAQGVLSTPFVTYAKGAETELAERLESIRAGFEKDVAAHAAQHAAKVAHRKEALLRSGQEKLDAGDAPRGRSFLKRAADEFGHEAGVLTDIGQRLQRAGLLFEAAEMFENAIAAFPKDGHAHAGVVAAYMGLQEYPKAEMAYTRALKQFGTHPKTLVNMARMYLAWRKRDEAWTHIQRALQLAPGDAEAKALLAEIEGRGSRR”, the protein production entry is “failed”.

Consider “MRGNDETVLAQALDWLRQGRRVALLTVLGTYGASPRPPGALAAIRDDGVICGSVSGGCVEDDLRREIAEGGVFGAAPSARVRSFGVSVEERQRYRLPCGNSLRVAVETMPDPAQLEALLAAVRQRRCLWRRVDYRDGAAHLLESGPPAAFAEDEAGFSALHGPLWRLLIIGGAELGRYLAQIALTLDYAVTVCEPREEYAAGWEPDGVALSAQMPDDLVLAFGCDERTAVVAVTHDPKLDDLALMEALRLPCHYVGALGSATTTMKRKARLAEHFGLTPAQLDRLHGPVGLPIGSRTPAEIAVSIAADLIASRSACHREGVHGEEGSCRA”, for which the protein production result is recorded as “failed”.

Take “MERIRWLYGFLACILIAILLAPLQIMAQGEFRTSDQPLVYYIPVEQEVERGLEAFLQRSLDSAVEEGADHIVLEINTPGGRVDAAGNMARALRETDIPITAYVIDQALSAGAYIALNADEIVMAPGSTMGSAAVIDSAGNAADEKAQSYWLAEMRNAAEYNDRDPKYALAMADRSIEIPELDISNEELLTLTASQALEVNYAEAIASNRAELLEHLQIDNAFEQEMEVSFAEKLARFVTNPLIIPILLSIGSLGLVLELYSPGFGVPGIMGISALLLFFFGHLIAGFAGYEAMILFIAGFLLILIEVFMPGFGLFGILGIAGMIGGMLLASFSTAWMLVSLGISAVVTTVVAIITFRYFGSRGPWKKMILTESTSSEKGYITNETRQELVGLIGQSLTPLRPSGSGLFGEERLDVVSEGGYIEQGRKIKVVSTSGSRIVVRETDE”: the protein production result was “failed”.

With “MRHLPYPLLGLFLALSSTGAALAGEQYYPLDKGSAPYAVAPSAQGAVWYGADGGHSLGRLDPTSGESVQVPLGEGARPRAIVSDESGNAWVLDSGLNAILRIGGERLGSERFPLPAKAAPAGLESAVFDDDGRLWFTGSRGFHGRLDPARRLVEVWPSPQGKAANGICVTPDGEVWYAQDDALVHVDPLDGSAERLPAPEGTKALRGIGADSIGRLWASDSGGARLYRYDPSDASWQSWPLPDSQARPDSLRVDAMDRVWLHDAASGALLRFDSEQATFRVLPSDRPAPGNALLGGRPGETWSAEPAADRLRVVRD”, the protein production entry is on record as “failed”.

Turning to “MRSQALRADVLMLITAVIWGSAFVAQTSGMNHIGPFLYSGLRFALGSLCLLPLVLRKTPTDRQPEPLLNRGLLLGGVLMGLALALGINLQQVGLMFTTVTNAGFITGLYVIVVPLLGLLIGHKTGLGTWLGAVLAVVGMFLLSVSDSFHVASGDWLQLIGAFVWGGHVILVGVFAGRHDPIRLAFLQFATCAVVSLILALCLEPLRWEAIVGAGPAILYGGVVAVGIGYTLQVIAQKDAIASHAAIILSLEAVFAAIAGAWLLDESLQARGYFGCALMLSGMLVAQLWPQKPHSSTTTQRA”, the protein production result was “failed”.

As for “MAPFSSSSAEIKIARTAPFSSSAENKGNRQINGASSSASSCDAENAKSGGSRQLGKAAYMEGKHVDALQIFMWMHRKEMSFSTSEVALFVDIIGNTIGIAAAHSYLKKVDPNCDQMHNRTENWPAFVSLVKLETKLLKENGIVHATRPPK”, the protein production result was “failed”.

As for “VTPEQLQHHRFVLESVNGKPVTSDKNPPEISFGEKMMISGSMCNRFSGEGKLSNGELTAKGLAMTRMMCANPQLNELDNTISEMLKEGAQVDLTANQLTLATAKQTLTYKLADLMN”, the protein production result is “not failed”.

As to “MIRVGYLGPEATFTNMAVSRFFPEAEHVPYRTIPDCMDAAANGNVDYAVVPLENAIEGSVNITIDYLVHEQPLSIVGEITVPIQQHLLVHPQYAEVWEEVYAVHSHPHAIAQCHKFLNEELKGITARDMTSTSAAAQYVKEHPEEKIAAIANEAAAEKYGLTIVRRSIHTHKNNHTRFLVLHKKKKAILSNNGENRGEKTTLMITLPADYAGALYQVLSAFAWRKLNLSKIESRPMKTGLGNYFFLIDVDKAYDDVLLPGVTMELEALGFSVTVLGSYSSYWL”, the protein production result is listed as “failed”.

Regarding “WQPATERLQVTYLGKVSTTGMQFLSGCTEKPVIELWKKHTLAREDVFPANALLEIRPFQVWLHHLDHKGEATVHMDTFQVARIAYCTADHNVSPNIFAWVYREINDDLSYQMDCHAVECESKLEAKKLAHAMMEAFRKTFHSMKSDGRIH”, the protein production result was “failed”.

As for “MKIAIVGSGNGAVTAAVDMVDKGHDVRLYCRNESISKFDVALEKGGFDFYNEGEEKFIEFTDISDDMEYVLDGADIVQVIIPSSFIEYYAKVMSKFVTNDHLIFFNIAASMGSIRFMNVLEDRHIDVHPHFAEANTLTYGTRVDFNNAKVDLSLNVRRVFFSTFDRSELNESYEKVSKIYDYLVKEESLLKTNL”, the protein production result is on record as “failed”.

“MNRIKAVGYENNELKEKAQLLADQLNLQLDQNADTCLFVTPEKLTLKIRNFSLMFADFSAMTWSKRRGEGKRQGLIRACKPTKGIKILDATAGWGKDAAILATFGADVVMLERHPVMAALLADALSRRNEADIQKMCLSLIASDAISFLHSLQEKDYPDIIYIDPMHPERNKSALVKKEMQVLQQLIGTDHDAMELIELSLSHVKSRVVVKWPQKVKPLLPPDASIDGKTVRFDIYMAQFSSN”: the protein production entry is “failed”.

“KWLDYDFTSLRKEILDKAFQKSLTQINWIMGGYYLVMESLSFFEYEQSIQSKTVRHLILVFYLLFFMGVIKKLDTYLKEKLYERLEQEQALRYRDMERYSRHIEELYKEVRSFRHDYTNLLTSLRLGIEEEDMEQIKEVYGSVLKDSSQKLQNNKYDLGRLVNIRDKALKSLLAGKFLKARDKNIVFNVEVPEEIQVEGMSLLDFLTIVSILCDNAIEASVEASQPHVSIAFLKNGAQETFIIENSIKEEGIDISEIFSFGASSKGEERGVGLYTVMKIVESHPNTSLNTTCQNQVFRQVLTVIHTE”: the protein production result is reported as “failed”.

“MWKDLTEPLPEACAEGLEIRVVKSPEELADYAAVLSANWNPPAETVQRFYTEAAEYALRKNSPALYLVGYAGNRAVCSAEAFIHASVVGIYNISTLEHKRRRGYGGAITLATLHTARNAGCDTAVLQASEDGEPVYRKLGFTDCGRFTEYSL”: the protein production entry was “failed”.

Regarding “MPVDKNLRDLEPGIHTDLEGRLTYGGYLRLDQLLSAQQPLSEPAHHDEMLFIIQHQTSELWLKLLAHELRAAIVHLQRDEVWQCRKVLARSKQVLRQLTEQWSVLETLTPSEYMGFRDVLGPSSGFQSLQYRYIEFLLGNKNPQMLQVFAYDPAGQARLREVLEAPSLYEEFLRYLARFGHAIPQQYQARDWTAAHVADDTLRPVFERIYENTDRYWREYSLCEDLVDVETQFQLWRFRHMRTVMRVIGFKRGTGGSSGVGFLQQALALTFFPELFDVRTSVGVDNRPPQGSADAGKRLEHHHHHH”, the protein production result is given as “not failed”.

“MTDNRPCRKDLLDWINVVSFAVDDVKLFLDTHPCNKEAMEFFDEFKKQRVQALKEYAKYYGPLTLDTASTCTERWNWINEPWPWQEGGCLEHHHHHH”: the protein production entry was “failed”.

Take “MLAAWLGCVLPAGAGLPVETLRVPPGFRVELLTEAMPSAREMALSPAGILYVGSRTGKVYALPLQVPGATVRVVASGLEQPVGVAWRDGSLYVSAVSRVVRLDRIDSRLDDPPVPVVVSDRFPTETHHGWKFIAFGPDGKLYVPVGAPCNVCHRDEDRYANLMRMNADGSSLEVVARGIRNTVGFDWHPVTHELWFTDNGADMMGDDVPDDELNRITAPGQHFGYPFCHAGDVPDPEFGAGHPCSRYVPPVGKLGAHVAALGMRFYTGSNFPQAYRHNLFIAEHGSWNRSSKVGYRVVRVVLDAAGKVVRQEPFVEGWLRGERAWGRPVDVLVAPDGSLLVSDDYAGAVYRVRYTGKLEHHHHHH”: the protein production entry is on record as “failed”.

With “MMKAEELNKGFVNEIIEAGTPVPGEKEVASLKSCYQCGTCTGSCPSGRRTAYRTRKVIRQALLGIDSVLDSDDIWKCTTCYTCYERCPRDVKVTEIIKTIRNLAAKKGNMATPHKMTAVYVLKAGHAVPANDDTAKLRKSIGLAEKAPIAQFSQKDMDEIRTIAKNLKFDELIGFDWKTMGLKQ”, the protein production result is on record as “failed”.

“MAATAREDGASGQERGQRGCEHYDRGCLLKAPCCDKLYTCRLCHDNNEDHQLDRFKVKEVQCINCEKIQHAQQTCEECSTLFGEYYCDICHLFDKDKKQYHCENCGICRIGPKEDFFHCLKCNLCLAMNLQGRHKCIENVSRQNCPICLEDIHTSRVVAHVLPCGHLLHRTCYEEMLKEGYRCPLCMHSALDMTRYWRQLDDEVAQTPMPSEYQNMTVDILCNDCNGRSTVQFHILGMKCKICESYNTAQAGGRRISLDQQ”: the protein production entry is given as “failed”.
